Measurements: patent US20230013244A1 (BioIncept, LLC, priority 2014, published 2023)

Legend:
Nucleolin (human) = Nucleolin (human) (UniProt P19338); assay: PIF affinity column + LC-MS/MS, CD8+ cell lysate
[1] = target: Isoform 2 of Protein SET (human) (UniProt Q01105); assay: PIF affinity column + LC-MS/MS, CD8+ cell lysate
Thymosin alpha-1 (human) [2] = target: Thymosin alpha-1 (human) (UniProt P06454); assay: PIF affinity column + LC-MS/MS, CD8+ cell lysate
Cofilin-1 (human) = Cofilin-1 (human) (UniProt P23528); assay: PIF affinity column + LC-MS/MS, CD8+ cell lysate
[3] = target: Actin, cytoplasmic 1 (human) (UniProt P60709); assay: PIF affinity column + LC-MS/MS, CD8+ cell lysate
[4] = target: Nuclease-sensitive element-binding protein 1 (Fragment) (human) (UniProt P67809); assay: PIF affinity column + LC-MS/MS, CD8+ cell lysate
[5] = target: Hepatoma-derived growth factor (human) (UniProt P51858); assay: PIF affinity column + LC-MS/MS, CD8+ cell lysate
[6] = target: Cartilage oligomeric matrix protein (human) (UniProt P49747); assay: PIF affinity column + LC-MS/MS, CD8+ cell lysate
Talin-1 (human) = Talin-1 (human) (UniProt Q9Y490); assay: PIF affinity column + LC-MS/MS, CD8+ cell lysate
Serum albumin (human) = Serum albumin (human) (UniProt P02768); assay: PIF affinity column + LC-MS/MS, CD8+ cell lysate
[7] = target: Serine/arginine-rich-splicing factor 1 (human) (UniProt Q07955); assay: PIF affinity column + LC-MS/MS, CD8+ cell lysate
[8] = target: Tubulin alpha-1C chain (human) (UniProt Q9BQE3); assay: PIF affinity column + LC-MS/MS, CD8+ cell lysate
Thymosin alpha-1 (human) [9] = target: Thymosin alpha-1 (human) (UniProt P06454); assay: PIF affinity column + LC-MS/MS, CD14+ cell lysate
Filamin-A (human) = Filamin-A (human) (UniProt P21333); assay: PIF affinity column + LC-MS/MS, CD14+ cell lysate
Calreticulin (human) = Calreticulin (human) (UniProt P27797); assay: PIF affinity column + LC-MS/MS, CD14+ cell lysate
Thrombospondin-1 (human) = Thrombospondin-1 (human) (UniProt P07996); assay: PIF affinity column + LC-MS/MS, CD14+ cell lysate
[10] = target: Actinin alpha 1 isoform 3 (human) (UniProt P12814); assay: PIF affinity column + LC-MS/MS, CD14+ cell lysate
Plastin-2 (human) = Plastin-2 (human) (UniProt P13796); assay: PIF affinity column + LC-MS/MS, CD14+ cell lysate
[11] = target: Isoform 2 of Adenylyl cyclase-associated protein 1 (human) (UniProt Q01518); assay: PIF affinity column + LC-MS/MS, CD14+ cell lysate
Hornerin (human) = Hornerin (human) (UniProt Q86YZ3); assay: PIF affinity column + LC-MS/MS, CD14+ cell lysate
Vimentin (human) = Vimentin (human) (UniProt P08670); assay: PIF affinity column + LC-MS/MS, CD14+ cell lysate
[12] = target: 14-3-3 protein zeta/delta (human) (UniProt P63104); assay: PIF affinity column + LC-MS/MS, CD14+ cell lysate
[13] = target: Tubulin alpha-4A chain (human) (UniProt P68366); assay: PIF affinity column + LC-MS/MS, CD14+ cell lysate
[14] = target: 14-3-3 protein eta (human) (UniProt Q04917); assay: PIF affinity column + LC-MS/MS, CD14+ cell lysate
[15] = target: Lymphocyte-specific protein 1 (human) (UniProt P33241); assay: PIF affinity column + LC-MS/MS, CD14+ cell lysate
[16] = target: Tropomyosin alpha-3 chain (human) (UniProt P06753); assay: PIF affinity column + LC-MS/MS, CD14+ cell lysate
Myosin-9 (human) = Myosin-9 (human) (UniProt P35579); assay: PIF affinity column + LC-MS/MS, CD14+ cell lysate
[17] = target: Heat shock protein HSP 90-beta (human) (UniProt P08238); assay: PIF affinity column + LC-MS/MS, CD14+ cell lysate
Protein S100-A8 (human) = Protein S100-A8 (human) (UniProt P05109); assay: PIF affinity column + LC-MS/MS, CD14+ cell lysate
Chain of Protein S100-A8 (human) (P05109 whole entry): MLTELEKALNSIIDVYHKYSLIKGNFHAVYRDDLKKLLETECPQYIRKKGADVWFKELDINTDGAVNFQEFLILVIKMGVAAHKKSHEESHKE

Chain of Myosin-9 (human) (P35579 2-1960 limits assumed): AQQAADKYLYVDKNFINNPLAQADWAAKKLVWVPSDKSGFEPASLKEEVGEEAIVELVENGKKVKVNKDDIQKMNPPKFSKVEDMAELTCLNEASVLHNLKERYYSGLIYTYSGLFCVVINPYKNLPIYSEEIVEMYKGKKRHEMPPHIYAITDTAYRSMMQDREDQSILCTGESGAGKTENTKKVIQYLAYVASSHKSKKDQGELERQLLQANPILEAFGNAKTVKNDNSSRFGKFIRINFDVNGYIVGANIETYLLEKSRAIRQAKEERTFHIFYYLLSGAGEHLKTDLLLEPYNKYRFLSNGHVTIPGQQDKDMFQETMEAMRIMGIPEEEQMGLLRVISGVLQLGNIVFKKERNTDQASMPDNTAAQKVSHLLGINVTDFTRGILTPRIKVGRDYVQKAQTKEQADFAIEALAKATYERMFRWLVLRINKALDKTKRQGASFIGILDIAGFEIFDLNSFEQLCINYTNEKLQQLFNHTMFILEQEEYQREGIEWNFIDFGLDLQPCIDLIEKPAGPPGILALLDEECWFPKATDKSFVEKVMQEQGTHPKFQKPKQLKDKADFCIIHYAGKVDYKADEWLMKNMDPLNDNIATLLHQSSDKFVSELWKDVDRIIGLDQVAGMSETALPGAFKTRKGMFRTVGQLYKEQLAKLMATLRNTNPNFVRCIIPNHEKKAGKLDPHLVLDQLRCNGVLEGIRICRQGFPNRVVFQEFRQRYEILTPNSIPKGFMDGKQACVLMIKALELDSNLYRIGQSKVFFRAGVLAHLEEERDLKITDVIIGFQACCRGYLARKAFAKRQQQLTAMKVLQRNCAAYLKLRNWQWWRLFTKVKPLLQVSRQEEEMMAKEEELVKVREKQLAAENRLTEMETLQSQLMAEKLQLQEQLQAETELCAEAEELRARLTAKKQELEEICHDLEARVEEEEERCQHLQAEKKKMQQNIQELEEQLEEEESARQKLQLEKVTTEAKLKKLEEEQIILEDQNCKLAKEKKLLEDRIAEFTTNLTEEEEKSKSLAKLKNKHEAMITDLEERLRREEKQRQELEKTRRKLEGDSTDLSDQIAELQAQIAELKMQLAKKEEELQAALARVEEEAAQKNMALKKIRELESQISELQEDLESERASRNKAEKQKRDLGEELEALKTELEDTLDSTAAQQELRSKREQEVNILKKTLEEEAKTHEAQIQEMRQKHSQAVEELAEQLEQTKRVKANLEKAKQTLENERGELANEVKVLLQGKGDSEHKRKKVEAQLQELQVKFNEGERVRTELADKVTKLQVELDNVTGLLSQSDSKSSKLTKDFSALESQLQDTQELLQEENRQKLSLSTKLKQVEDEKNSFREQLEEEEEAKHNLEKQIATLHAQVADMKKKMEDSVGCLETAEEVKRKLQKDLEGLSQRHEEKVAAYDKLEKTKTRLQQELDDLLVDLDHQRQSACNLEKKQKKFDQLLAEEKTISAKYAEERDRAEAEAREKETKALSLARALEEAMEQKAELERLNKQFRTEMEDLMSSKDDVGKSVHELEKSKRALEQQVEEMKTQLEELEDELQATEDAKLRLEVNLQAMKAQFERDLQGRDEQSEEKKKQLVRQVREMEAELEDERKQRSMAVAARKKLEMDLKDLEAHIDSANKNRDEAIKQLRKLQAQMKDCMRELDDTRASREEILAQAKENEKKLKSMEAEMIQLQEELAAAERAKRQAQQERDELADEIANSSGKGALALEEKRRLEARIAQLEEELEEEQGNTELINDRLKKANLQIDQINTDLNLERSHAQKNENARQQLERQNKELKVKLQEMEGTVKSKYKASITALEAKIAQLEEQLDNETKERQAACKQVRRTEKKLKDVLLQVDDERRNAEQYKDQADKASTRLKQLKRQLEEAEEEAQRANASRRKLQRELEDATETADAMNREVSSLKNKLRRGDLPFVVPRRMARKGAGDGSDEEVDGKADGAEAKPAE
Chain of Hornerin (human) (Q86YZ3 whole entry): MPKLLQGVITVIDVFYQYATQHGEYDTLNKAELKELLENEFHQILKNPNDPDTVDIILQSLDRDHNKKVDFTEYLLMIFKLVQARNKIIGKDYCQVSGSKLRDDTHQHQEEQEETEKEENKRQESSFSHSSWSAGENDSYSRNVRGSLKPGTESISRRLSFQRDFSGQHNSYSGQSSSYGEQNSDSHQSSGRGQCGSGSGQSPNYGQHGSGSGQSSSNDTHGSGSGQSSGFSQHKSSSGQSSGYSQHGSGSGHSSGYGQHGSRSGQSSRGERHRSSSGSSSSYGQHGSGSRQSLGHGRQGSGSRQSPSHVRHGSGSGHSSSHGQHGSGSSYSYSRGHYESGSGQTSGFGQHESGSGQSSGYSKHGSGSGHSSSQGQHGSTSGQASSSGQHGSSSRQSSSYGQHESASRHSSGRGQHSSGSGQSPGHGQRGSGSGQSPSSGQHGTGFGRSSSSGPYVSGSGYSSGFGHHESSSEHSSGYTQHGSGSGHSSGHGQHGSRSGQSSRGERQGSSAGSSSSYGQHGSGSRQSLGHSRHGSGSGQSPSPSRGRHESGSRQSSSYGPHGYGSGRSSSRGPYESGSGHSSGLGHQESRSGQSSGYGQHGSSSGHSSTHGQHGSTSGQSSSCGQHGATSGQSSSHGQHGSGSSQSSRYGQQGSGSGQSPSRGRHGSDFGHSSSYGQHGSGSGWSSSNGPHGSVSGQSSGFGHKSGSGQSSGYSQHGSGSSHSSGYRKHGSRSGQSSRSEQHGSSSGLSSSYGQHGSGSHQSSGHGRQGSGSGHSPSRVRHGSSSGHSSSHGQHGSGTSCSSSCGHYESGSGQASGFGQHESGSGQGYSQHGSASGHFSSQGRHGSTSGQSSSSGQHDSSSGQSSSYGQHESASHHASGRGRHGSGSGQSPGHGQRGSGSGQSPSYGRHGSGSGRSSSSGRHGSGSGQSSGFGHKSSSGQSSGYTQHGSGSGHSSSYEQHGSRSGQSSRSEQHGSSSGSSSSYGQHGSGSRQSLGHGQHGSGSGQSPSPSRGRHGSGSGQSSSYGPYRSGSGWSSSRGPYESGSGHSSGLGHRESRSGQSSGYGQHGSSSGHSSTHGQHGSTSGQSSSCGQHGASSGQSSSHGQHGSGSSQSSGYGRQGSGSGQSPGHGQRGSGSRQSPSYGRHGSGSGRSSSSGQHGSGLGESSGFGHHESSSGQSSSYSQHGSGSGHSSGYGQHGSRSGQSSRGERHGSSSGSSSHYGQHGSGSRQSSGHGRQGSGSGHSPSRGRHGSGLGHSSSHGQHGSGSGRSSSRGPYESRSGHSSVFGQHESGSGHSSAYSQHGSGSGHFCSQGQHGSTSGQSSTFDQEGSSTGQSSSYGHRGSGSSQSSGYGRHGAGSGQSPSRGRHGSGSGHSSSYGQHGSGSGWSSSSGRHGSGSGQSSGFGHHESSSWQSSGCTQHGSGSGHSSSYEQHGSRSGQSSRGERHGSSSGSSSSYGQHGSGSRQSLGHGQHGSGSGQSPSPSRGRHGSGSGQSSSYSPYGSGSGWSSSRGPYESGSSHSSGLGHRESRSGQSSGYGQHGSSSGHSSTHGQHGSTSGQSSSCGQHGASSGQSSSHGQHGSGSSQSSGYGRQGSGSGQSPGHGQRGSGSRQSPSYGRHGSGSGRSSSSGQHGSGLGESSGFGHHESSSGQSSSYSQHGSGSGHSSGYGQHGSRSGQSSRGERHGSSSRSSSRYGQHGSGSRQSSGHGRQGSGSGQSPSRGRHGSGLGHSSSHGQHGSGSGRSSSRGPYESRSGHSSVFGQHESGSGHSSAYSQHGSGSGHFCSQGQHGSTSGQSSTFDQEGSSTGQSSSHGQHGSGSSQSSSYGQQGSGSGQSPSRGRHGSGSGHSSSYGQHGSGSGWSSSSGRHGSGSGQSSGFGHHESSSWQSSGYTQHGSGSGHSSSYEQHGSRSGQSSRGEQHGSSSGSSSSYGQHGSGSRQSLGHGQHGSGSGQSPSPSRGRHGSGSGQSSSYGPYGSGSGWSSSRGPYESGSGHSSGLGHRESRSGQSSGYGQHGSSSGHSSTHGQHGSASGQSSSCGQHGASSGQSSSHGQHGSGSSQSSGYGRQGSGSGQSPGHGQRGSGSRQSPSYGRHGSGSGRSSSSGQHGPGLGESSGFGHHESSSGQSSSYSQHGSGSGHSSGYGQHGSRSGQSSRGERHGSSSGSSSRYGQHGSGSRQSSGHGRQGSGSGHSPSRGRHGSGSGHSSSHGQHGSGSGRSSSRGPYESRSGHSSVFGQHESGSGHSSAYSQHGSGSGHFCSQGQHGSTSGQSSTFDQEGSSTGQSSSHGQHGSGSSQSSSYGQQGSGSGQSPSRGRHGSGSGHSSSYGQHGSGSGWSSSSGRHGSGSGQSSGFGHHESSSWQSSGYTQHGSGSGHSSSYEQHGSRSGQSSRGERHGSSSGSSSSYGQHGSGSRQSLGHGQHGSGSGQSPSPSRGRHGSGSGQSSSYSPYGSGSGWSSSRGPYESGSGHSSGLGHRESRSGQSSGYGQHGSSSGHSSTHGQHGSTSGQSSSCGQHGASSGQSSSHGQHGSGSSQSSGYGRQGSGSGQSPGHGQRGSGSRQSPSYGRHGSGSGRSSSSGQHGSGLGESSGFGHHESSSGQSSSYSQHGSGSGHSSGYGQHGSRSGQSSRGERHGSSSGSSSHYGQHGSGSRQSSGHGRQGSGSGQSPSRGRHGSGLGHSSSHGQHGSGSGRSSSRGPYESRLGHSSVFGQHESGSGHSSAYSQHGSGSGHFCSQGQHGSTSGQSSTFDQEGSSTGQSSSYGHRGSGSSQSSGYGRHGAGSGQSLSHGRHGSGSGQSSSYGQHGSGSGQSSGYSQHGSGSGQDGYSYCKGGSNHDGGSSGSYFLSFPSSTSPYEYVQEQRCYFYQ
Chain of 14-3-3 protein eta (human) (Q04917 2-246 limits assumed): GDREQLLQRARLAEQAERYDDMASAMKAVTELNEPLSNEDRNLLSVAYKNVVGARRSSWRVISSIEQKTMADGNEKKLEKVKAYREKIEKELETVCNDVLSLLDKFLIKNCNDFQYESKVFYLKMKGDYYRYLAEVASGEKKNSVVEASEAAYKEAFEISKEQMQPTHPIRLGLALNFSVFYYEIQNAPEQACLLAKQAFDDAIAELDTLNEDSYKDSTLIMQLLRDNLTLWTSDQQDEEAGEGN

Question: For “PIF-resin (PIF15 affinity ligand on agarose) (peptide)”, which Ave (Nucleolin (human)) is on record?
Answer: 1

Question: And the Inject 1 (Nucleolin (human))?
Answer: 1

Question: What about the Inject 2 (Nucleolin (human)) of the same substance?
Answer: 1

Question: What about the Inject 3 (Nucleolin (human)) of the same substance?
Answer: 1

Question: What about the Ave [1] of the same substance?
Answer: 1

Question: What about the Inject 1 [1] of the same substance?
Answer: 1

Question: And the Inject 2 [1]?
Answer: 1

Question: What about the Inject 3 [1] of the same substance?
Answer: 1

Question: What about the Inject 3 (Thymosin alpha-1 (human) [2]) of the same substance?
Answer: 4

Question: And the Ave (Cofilin-1 (human))?
Answer: 1

Question: What about the Inject 1 (Cofilin-1 (human)) of the same substance?
Answer: 1

Question: And the Inject 2 (Cofilin-1 (human))?
Answer: 1

Question: And the Inject 3 (Cofilin-1 (human))?
Answer: 1

Question: And the Ave [3]?
Answer: 3

Question: What about the Inject 1 [3] of the same substance?
Answer: 3

Question: And the Inject 2 [3]?
Answer: 3

Question: And the Inject 3 [3]?
Answer: 3

Question: And the Ave [4]?
Answer: 1

Question: What about the Inject 1 [4] of the same substance?
Answer: 1

Question: What about the Inject 2 [4] of the same substance?
Answer: 1

Question: And the Inject 3 [4]?
Answer: 1

Question: What about the Ave [5] of the same substance?
Answer: 1

Question: What about the Inject 1 [5] of the same substance?
Answer: 1

Question: And the Inject 2 [5]?
Answer: 1

Question: And the Inject 3 [5]?
Answer: 1

Question: What about the Ave [6] of the same substance?
Answer: 4

Question: And the Inject 1 [6]?
Answer: 4

Question: What about the Inject 2 [6] of the same substance?
Answer: 4

Question: What about the Inject 3 [6] of the same substance?
Answer: 5

Question: What about the Ave (Talin-1 (human)) of the same substance?
Answer: 1

Question: What about the Inject 1 (Talin-1 (human)) of the same substance?
Answer: 1

Question: And the Inject 2 (Talin-1 (human))?
Answer: 1

Question: What about the Inject 3 (Talin-1 (human)) of the same substance?
Answer: 1

Question: What about the Inject 3 (Serum albumin (human)) of the same substance?
Answer: 8

Question: And the Ave [7]?
Answer: 1

Question: And the Inject 1 [7]?
Answer: 1

Question: What about the Inject 2 [7] of the same substance?
Answer: 1

Question: What about the Inject 3 [7] of the same substance?
Answer: 1

Question: What about the Ave [8] of the same substance?
Answer: 1

Question: What about the Inject 1 [8] of the same substance?
Answer: 1

Question: What about the Inject 2 [8] of the same substance?
Answer: 1

Question: And the Inject 3 [8]?
Answer: 1

Question: And the Ave (Thymosin alpha-1 (human) [9])?
Answer: 5

Question: And the Inject 1 (Thymosin alpha-1 (human) [9])?
Answer: 5

Question: And the Inject 2 (Thymosin alpha-1 (human) [9])?
Answer: 5

Question: And the Inject 3 (Thymosin alpha-1 (human) [9])?
Answer: 4

Question: And the Ave (Filamin-A (human))?
Answer: 5

Question: And the Inject 1 (Filamin-A (human))?
Answer: 5

Question: And the Inject 2 (Calreticulin (human))?
Answer: 4

Question: And the Inject 2 (Thrombospondin-1 (human))?
Answer: 5

Question: What about the Inject 3 (Thrombospondin-1 (human)) of the same substance?
Answer: 8

Question: And the Ave [10]?
Answer: 4

Question: What about the Inject 1 [10] of the same substance?
Answer: 5

Question: And the Inject 2 [10]?
Answer: 4

Question: And the Ave (Plastin-2 (human))?
Answer: 1

Question: And the Inject 1 (Plastin-2 (human))?
Answer: 1

Question: And the Inject 2 (Plastin-2 (human))?
Answer: 1

Question: What about the Inject 1 [11] of the same substance?
Answer: 4

Question: What about the Ave (Hornerin (human)) of the same substance?
Answer: 1

Question: What about the Inject 1 (Hornerin (human)) of the same substance?
Answer: 1

Question: And the Inject 2 (Hornerin (human))?
Answer: 0

Question: What about the Ave (Vimentin (human)) of the same substance?
Answer: 10

Question: What about the Inject 1 (Vimentin (human)) of the same substance?
Answer: 9

Question: What about the Inject 2 (Vimentin (human)) of the same substance?
Answer: 11

Question: What about the Inject 3 (Vimentin (human)) of the same substance?
Answer: 9

Question: What about the Ave [12] of the same substance?
Answer: 4

Question: And the Inject 1 [12]?
Answer: 4

Question: And the Inject 3 [12]?
Answer: 4

Question: And the Inject 3 [13]?
Answer: 1

Question: What about the Ave [14] of the same substance?
Answer: 1

Question: What about the Inject 1 [14] of the same substance?
Answer: 1

Question: What about the Inject 2 [14] of the same substance?
Answer: 1

Question: And the Inject 1 [15]?
Answer: 4

Question: What about the Inject 3 [15] of the same substance?
Answer: 1

Question: And the Ave [16]?
Answer: 4

Question: What about the Inject 1 [16] of the same substance?
Answer: 4

Question: What about the Inject 3 [16] of the same substance?
Answer: 5

Question: And the Ave (Myosin-9 (human))?
Answer: 10

Question: What about the Inject 1 (Myosin-9 (human)) of the same substance?
Answer: 11

Question: And the Inject 2 (Myosin-9 (human))?
Answer: 9

Question: And the Inject 3 (Myosin-9 (human))?
Answer: 10

Question: And the Ave [17]?
Answer: 1

Question: And the Inject 2 [17]?
Answer: 1

Question: What about the Inject 3 [17] of the same substance?
Answer: 1

Question: And the Inject 2 (Protein S100-A8 (human))?
Answer: 1
